In assay [1] the target is T1, E. coli LipBK135A/C169A (catalytically inactive double mutant of lipoate protein ligase B) (E. coli, UniProt P60720 1-213, K135A | C169A). In words: SPR; LipBK135A/C169A immobilised on an activated gold sensor surface (Autolab ESPRIT), increasing concentrations of ACP passed over; 20 mM sodium phosphate pH 8.0, 100 mM NaCl, 298 K; global fit of five injections, 1:1 Langmuir model. To be noted: both partners purified. For orientation: In SPR one partner is held on a chip, and binding of the other changes the refractive index at the surface.

The target of assay [2] is T1, E. coli LipBK135A/C169A (catalytically …). Description: SPR; apparent (binding curve did not reach saturation for holo-ACP); LipBK135A/C169A immobilised on an activated gold sensor surface (Autolab ESPRIT), increasing concentrations of ACP passed over; 20 mM sodium phosphate pH 8.0, 100 mM NaCl, 298 K; global fit of five injections, 1:1 Langmuir model. To be noted: both partners purified.

B1: E. coli C8-ACP (octanoyl-acyl carrier protein), SPR sample (natural protein)
chain: STIEERVKKIIGEQLGVKQEEVTNNASFVEDLGADSLDTVELVMALEEEFDTEIPDEEAEKITTVQAAIDYINGHQA
modifications: octanoyl (C8) chain on a 4'-phosphopantetheine arm (residue not stated)
B1: in assay [1], the Kd came to 36.4 µM.

B2: E. coli apo-ACP (unmodified acyl carrier protein), SPR sample (natural protein)
chain: B1 chain
As to B2, the Kd in assay [2] came out at 2.1 mM.

B3: E. coli holo-ACP (acyl carrier protein with 4'-phosphopantetheine), SPR sample (natural protein)
chain: B1 chain
modifications: 4'-phosphopantetheine arm (residue not stated)
B3: in assay [2], the Kd came out at 0.1 mM.

Source of the values: article PMC9307952 (The Journal of Biological Chemistry, 2022).
